Reference: patent US20130129731A1 (SAMSUNG ELECTRONICS, published 2013)
Like-named read-outs stand apart in the source and are kept apart here.

Assays:
[1] = biological target: T1, BSA (Takara) (Bos taurus, UniProt P02769); assay: ELISA, antigen coated on the plate, detection with goat anti-human IgG-HRP, absorbance at 450 nm
T1 construct: commercial protein

[2] = biological target: T2, mouse c-Met antigen (Biacore analyte) (mouse, UniProt P16056 25-931, limits assumed); assay: SPR (Biacore), antibody immobilised on a CM5 chip, c-Met antigen injected
Method: (§1) Binding affinity of the IGTML4-4 antibody constructed in Example 1 to c-Met antigens was analyzed using a Biacore (available from GE Healthcare).

[3] = biological target: T3, human c-Met antigen (Biacore analyte) (human, UniProt P08581 25-932, limits assumed); assay: as above
Method: as §1

[4] = biological target: T2, mouse c-Met antigen (Biacore analyte); assay: as above; remark: listed apart in the source
Method: as §1

[5] = biological target: T3, human c-Met antigen (Biacore analyte); assay: as above; remark: listed apart in the source
Method: as §1

[6] = biological target: c-Met on human cells (Caki-1 cells, HUVECs, human primary hepatocytes) (human, UniProt P08581 25-1390); assay: cell-based or functional assay
c-Met on human cells (Caki-1 cells, HUVECs, human primary hepatocytes), sequence (P08581 25-1390): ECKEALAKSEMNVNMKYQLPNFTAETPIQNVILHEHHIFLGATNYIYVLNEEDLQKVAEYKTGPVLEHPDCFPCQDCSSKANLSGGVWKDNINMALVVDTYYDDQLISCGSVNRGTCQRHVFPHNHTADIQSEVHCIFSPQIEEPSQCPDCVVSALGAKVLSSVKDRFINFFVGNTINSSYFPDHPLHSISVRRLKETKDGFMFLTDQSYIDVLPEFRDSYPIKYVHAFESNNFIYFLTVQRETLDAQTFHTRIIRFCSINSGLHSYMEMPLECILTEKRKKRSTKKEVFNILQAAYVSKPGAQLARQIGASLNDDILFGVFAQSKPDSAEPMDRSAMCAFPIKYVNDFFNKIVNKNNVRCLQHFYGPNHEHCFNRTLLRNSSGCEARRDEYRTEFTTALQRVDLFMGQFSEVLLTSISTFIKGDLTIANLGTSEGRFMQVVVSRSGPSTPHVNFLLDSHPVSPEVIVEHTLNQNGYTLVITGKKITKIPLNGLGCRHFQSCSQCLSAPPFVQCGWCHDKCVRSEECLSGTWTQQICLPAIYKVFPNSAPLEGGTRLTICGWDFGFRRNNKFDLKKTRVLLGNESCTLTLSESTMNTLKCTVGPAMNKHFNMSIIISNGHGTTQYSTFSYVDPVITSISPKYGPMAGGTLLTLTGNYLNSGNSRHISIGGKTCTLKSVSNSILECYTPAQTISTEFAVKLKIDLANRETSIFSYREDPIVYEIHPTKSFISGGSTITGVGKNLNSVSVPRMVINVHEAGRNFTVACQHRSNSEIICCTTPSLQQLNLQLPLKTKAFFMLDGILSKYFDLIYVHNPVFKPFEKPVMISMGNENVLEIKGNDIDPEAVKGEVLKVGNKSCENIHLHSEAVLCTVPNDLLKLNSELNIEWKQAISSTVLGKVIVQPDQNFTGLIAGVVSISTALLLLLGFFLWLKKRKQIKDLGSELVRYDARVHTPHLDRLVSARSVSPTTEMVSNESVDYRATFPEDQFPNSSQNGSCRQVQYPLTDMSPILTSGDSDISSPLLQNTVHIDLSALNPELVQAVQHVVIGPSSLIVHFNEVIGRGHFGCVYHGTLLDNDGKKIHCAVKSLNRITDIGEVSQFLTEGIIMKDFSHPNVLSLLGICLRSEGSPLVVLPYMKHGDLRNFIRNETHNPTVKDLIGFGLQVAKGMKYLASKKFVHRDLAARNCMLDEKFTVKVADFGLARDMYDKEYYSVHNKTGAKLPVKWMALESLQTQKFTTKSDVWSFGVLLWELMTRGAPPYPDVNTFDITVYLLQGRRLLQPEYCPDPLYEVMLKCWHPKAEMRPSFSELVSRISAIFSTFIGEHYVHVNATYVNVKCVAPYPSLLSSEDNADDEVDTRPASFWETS

T2 sequence (P16056 25-931 limits assumed): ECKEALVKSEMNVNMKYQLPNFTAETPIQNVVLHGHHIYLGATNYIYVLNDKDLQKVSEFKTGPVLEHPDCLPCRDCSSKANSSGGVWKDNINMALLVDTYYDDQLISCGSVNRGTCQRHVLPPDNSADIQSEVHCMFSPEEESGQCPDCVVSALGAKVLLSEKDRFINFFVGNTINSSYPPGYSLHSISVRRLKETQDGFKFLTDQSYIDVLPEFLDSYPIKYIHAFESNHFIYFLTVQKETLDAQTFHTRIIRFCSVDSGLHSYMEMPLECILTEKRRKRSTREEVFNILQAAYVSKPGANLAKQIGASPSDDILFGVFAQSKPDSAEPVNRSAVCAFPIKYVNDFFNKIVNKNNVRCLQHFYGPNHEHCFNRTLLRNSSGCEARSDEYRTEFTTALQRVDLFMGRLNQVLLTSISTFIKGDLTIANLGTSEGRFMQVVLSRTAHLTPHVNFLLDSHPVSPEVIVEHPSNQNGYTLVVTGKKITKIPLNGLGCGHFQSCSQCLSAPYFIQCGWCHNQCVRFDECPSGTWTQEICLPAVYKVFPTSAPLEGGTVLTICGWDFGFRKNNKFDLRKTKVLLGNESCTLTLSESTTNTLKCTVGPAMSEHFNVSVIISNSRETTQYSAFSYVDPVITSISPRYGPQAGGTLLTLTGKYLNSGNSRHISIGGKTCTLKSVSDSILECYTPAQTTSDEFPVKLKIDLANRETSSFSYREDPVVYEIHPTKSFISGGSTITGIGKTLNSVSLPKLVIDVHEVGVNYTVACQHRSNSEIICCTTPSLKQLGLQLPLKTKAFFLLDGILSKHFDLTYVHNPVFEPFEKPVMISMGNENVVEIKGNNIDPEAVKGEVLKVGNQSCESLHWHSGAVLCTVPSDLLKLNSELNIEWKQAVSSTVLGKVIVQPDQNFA
T3 sequence (P08581 25-932 limits assumed): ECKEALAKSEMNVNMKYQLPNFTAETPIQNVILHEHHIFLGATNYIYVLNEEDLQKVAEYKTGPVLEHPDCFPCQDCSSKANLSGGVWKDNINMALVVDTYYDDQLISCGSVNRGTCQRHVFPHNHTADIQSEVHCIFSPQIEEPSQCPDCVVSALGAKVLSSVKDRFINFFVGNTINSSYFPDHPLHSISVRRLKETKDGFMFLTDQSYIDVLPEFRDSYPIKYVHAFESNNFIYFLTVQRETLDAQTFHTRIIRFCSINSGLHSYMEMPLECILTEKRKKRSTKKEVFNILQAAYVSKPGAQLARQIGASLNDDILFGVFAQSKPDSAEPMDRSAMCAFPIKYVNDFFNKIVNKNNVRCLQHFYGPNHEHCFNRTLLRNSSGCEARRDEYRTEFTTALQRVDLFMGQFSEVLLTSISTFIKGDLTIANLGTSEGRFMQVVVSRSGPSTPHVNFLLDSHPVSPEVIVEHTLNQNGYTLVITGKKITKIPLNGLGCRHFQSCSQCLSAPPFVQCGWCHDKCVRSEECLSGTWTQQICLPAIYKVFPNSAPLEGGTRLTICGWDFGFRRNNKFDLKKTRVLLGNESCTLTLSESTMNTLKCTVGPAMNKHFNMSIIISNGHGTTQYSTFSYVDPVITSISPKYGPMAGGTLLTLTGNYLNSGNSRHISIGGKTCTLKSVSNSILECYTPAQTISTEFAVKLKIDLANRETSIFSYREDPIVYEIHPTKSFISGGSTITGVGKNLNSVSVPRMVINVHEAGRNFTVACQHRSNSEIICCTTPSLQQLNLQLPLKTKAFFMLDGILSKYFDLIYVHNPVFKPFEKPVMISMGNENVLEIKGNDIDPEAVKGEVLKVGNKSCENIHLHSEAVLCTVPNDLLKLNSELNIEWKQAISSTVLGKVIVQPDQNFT
T1 sequence (P02769 25-607 limits assumed): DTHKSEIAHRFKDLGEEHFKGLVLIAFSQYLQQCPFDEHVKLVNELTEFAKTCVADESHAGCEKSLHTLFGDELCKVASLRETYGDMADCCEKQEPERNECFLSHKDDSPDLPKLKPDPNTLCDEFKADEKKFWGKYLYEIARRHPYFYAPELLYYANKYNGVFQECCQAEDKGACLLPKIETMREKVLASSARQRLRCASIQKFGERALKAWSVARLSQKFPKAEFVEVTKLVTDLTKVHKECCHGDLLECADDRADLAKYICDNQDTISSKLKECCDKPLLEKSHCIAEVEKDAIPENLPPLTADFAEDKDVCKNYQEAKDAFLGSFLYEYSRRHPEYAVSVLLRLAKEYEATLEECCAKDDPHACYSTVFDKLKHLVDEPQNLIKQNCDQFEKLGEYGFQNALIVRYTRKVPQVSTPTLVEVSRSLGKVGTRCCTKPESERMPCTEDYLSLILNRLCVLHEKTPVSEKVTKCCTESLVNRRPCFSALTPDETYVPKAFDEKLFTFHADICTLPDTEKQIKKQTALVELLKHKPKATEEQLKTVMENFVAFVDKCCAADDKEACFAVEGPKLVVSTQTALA

binding result [1]: no binding
Kd [2]: 304 pM
koff [2]: 0.000168 s⁻¹
kon [2]: 553000 M⁻¹ s⁻¹
Kd [3]: 398 pM
koff [3]: 0.000188 s⁻¹
kon [3]: 471000 M⁻¹ s⁻¹
Kd [4]: < 1000 pM
Kd [5]: < 1000 pM
degree of Akt phosphorylation relative to the 5D5 antibody (Caki-1 cells, 5 µg/ml antibody, phospho-AKT1 Ser473 sandwich ELISA) [6]: ~84%
B1: IGTML4-4 antibody (antibody, V domains shown)
VH: QVQLLQSGGGLVQPGGSLRVSCAASGFRFSMYVMTWVRQAPGKGLEWVSEISASGASTYYADSVKGRFTMSRDNSKNTVFLQMNSLRVEDTAVYYCARAYRYGMDVWGQGTMVTVSS
VL: DIVMTQSPSSVSASVGDRVTLTCRASQNIGSWLAWYQQKPGNAPKLLIYRASNLRSGVPSRFSGSGSGTDFTLTISSLQPEDFATYFCQQATIFPLTFGGGTRVDIKR
notes: also called anti c-Met antibody
